# Reference: IntAct's records for PubMed 19017798
# B1: Latent membrane protein 1 (Epstein-Barr virus (strain B95-8) (HHV-4)), P03230 (parent)
# chain: MEHDLERGPPGPRRPPRGPPLSSSLGLALLLLLLALLFWLYIVMSDWTGGALLVLYSFALMLIIIILIIFIFRRDLLCPLGALCILLLMITLLLIALWNLHGQALFLGIVLFIFGCLLVLGIWIYLLEMLWRLGATIWQLLAFFLAFFLDLILLIIALYLQQNWWTLLVDLLWLLLFLAILIWMYYHGQRHSDEHHHDDSLPHPQQATDDSGHESDSNSNEGRHHLLVSGAGDGPPLCSQNLGAPGGGPDNGPQDPDNTDDNGPQDPDNTDDNGPHDPLPQDPDNTDDNGPQDPDNTDDNGPHDPLPHSPSDSAGNDGGPPQLTEEVENKGGDQGPPLMTDGGGGHSHDSGHGGGDPHLPTLLLGSSGSGGDDDDPHGPVQLSYYD
# partner: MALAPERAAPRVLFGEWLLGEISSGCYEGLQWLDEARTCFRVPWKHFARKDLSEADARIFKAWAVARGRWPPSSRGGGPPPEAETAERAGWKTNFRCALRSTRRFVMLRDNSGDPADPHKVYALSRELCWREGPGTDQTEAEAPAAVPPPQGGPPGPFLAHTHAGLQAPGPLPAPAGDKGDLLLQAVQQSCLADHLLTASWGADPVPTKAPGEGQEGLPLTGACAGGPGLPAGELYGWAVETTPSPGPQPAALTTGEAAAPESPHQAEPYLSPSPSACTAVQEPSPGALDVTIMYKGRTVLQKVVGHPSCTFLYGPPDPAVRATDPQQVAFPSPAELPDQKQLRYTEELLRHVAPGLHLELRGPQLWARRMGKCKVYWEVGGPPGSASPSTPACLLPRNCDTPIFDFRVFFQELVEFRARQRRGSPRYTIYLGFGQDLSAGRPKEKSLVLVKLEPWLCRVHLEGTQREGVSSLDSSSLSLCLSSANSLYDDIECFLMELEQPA
# Variants of: B1
# Conditions: with IRF7, Q92985-1
row,Variant,effect of a mutation on the interaction
1,P376A;H377A;G378A;P379A;V380A;Q381A;L382A;S383A,disrupting interaction
